Assay results taken from patent US20260242478A1 (published 2026).

B1: Phage-3291 (peptide)
peptide: PIPRCQPLWMCHGF
notes: Peptide-180 library clone, tested as clonal phage supernatant with the peptide fused to pIII
B2: Phage-3294 (peptide)
peptide: TDVMCVPQWMCDGF
notes: as for B1
B3: Phage-3293 (peptide)
peptide: ETLMCIPNWMCDGF
notes: as for B1
B4: Phage-3292 (peptide)
peptide: YEMRCVPDWMCVGL
notes: as for B1

These binders were tested against T1, PSMA Fab (assay: clonal phage ELISA on biotinylated PSMA Fab captured on neutravidin, anti-M13 HRP detection, blocking buffer alone).
T1 construct: In the panning ELISA the PSMA Fab was biotinylated and captured on neutravidin coated plates; also called Anti-PSMA Fab; 006 PSMA Fab
Method: (§1) Clonal phage were harvested as crude supernatants and screened via standard ELISAs. […] Prior to the addition of clonal phage. wells were incubated with blocking buffer and PSMA antigen or blocking buffer alone. Without washing or aspirating, clonal phage supernatants were then added to the wells and incubated for a short time. Wells were then washed followed by detection of bound phage using a horse radish conjugated anti-M13 antibody.

| Binder | Phage binding ELISA signal, Anti-PSMA Fab |
| --- | --- |
| NWKVCEPTWMCEGF [Phage-3308] | 1.87 |
| WVIKCVPSWMCAGL [Phage-3321] | 1.85 |
| VGHVCIPSWMCDGM [Phage-3320] | 1.86 |
| LPIMCKPQWMCNGF [Phage-3318] | 1.86 |
| LEFRCVPEWMCVGF [Phage-3311] | 1.87 |
| IEKLCKPQWMCEGF [Phage-3310] | 1.87 |
| VEIACKPQWMCLGF [Phage-3315] | 1.86 |
| AEHVCRPAWMCTVF [Phage-3313] | 1.86 |
| VERACVPAWMCTGF [Phage-3309] | 1.87 |
| LQVMCVPRWMCEGF [Phage-3319] | 1.86 |
| SSVMCIPQWMCSGF [Phage-3317] | 1.86 |
| QEFRCVPEWMCIGL [Phage-3316] | 1.86 |
| DLRWCIPEWMCIGI [Phage-3312] | 1.86 |
| LLEMCKPHWMCVGF [Phage-3314] | 1.86 |

These binders were tested against T2, PSMA Fab (biotinylated (site not stated)) (assay: phage ELISA on captured PSMA Fab pre-incubated with PSMA antigen as competitor, anti-M13-HRP detection).
T2 construct: also called Anti-PSMA Fab; 006 PSMA Fab

| Binder | Phage binding ELISA signal, Anti-PSMA Fab with PSMA antigen |
| --- | --- |
| B1 | 0.085 |
| B2 | 0.106 |
| B3 | 0.0837 |
| B4 | 0.0906 |

What follows are binders tested against T2, PSMA Fab (assay: phage ELISA: clonal phage on biotinylated PSMA Fab captured on neutravidin, anti-M13-HRP detection, blocking buffer alone).
Method: as §1

| Binder | Phage binding ELISA signal, Anti-PSMA Fab |
| --- | --- |
| B1 | 1.89 |
| B2 | 1.89 |
| B3 | 1.89 |
| B4 | 1.89 |

These binders were tested against T1, PSMA Fab (assay: clonal phage ELISA on biotinylated PSMA Fab captured on neutravidin, anti-M13 HRP detection, wells pre-incubated with saturating PSMA antigen as competitor).
Method: as §1

| Binder | Phage binding ELISA signal, Anti-PSMA Fab with PSMA antigen |
| --- | --- |
| NWKVCEPTWMCEGF [Phage-3308] | 0.0575 |
| WVIKCVPSWMCAGL [Phage-3321] | 0.0907 |
| VGHVCIPSWMCDGM [Phage-3320] | 0.0683 |
| LPIMCKPQWMCNGF [Phage-3318] | 0.08 |
| LEFRCVPEWMCVGF [Phage-3311] | 0.111 |
| IEKLCKPQWMCEGF [Phage-3310] | 0.129 |
| VEIACKPQWMCLGF [Phage-3315] | 0.0766 |
| AEHVCRPAWMCTVF [Phage-3313] | 0.0585 |
| VERACVPAWMCTGF [Phage-3309] | 0.0832 |
| LQVMCVPRWMCEGF [Phage-3319] | 0.104 |
| SSVMCIPQWMCSGF [Phage-3317] | 0.0899 |
| QEFRCVPEWMCIGL [Phage-3316] | 0.0577 |
| DLRWCIPEWMCIGI [Phage-3312] | 0.0809 |
| LLEMCKPHWMCVGF [Phage-3314] | 0.085 |
